To fix the notation:
B1: Ras-related protein Rab-4B (Rattus norvegicus (Rat)), P51146 (parent)
chain: MAETYDFLFKFLVIGSAGTGKSCLLHQFIENKFKQDSNHTIGVEFGSRVVNVGGKTVKLQIWDTAGQERFRSVTRSYYRGAAGALLVYDITSRETYNSLAAWLTDARTLASPNIVVILCGNKKDLDPEREVTFLEASRFAQENELMFLETSALTGENVEEAFLKCARTILNKIDSGELDPERMGSGIQYGDISLRQLRQPRSAQAVAPQPCGC
B2: Ras-related protein Rab-9A (Homo sapiens), P51151 (parent)
chain: MAGKSSLFKVILLGDGGVGKSSLMNRYVTNKFDTQLFHTIGVEFLNKDLEVDGHFVTMQIWDTAGQERFRSLRTPFYRGSDCCLLTFSVDDSQSFQNLSNWKKEFIYYADVKEPESFPFVILGNKIDISERQVSTEEAQAWCRDNGDYPYFETSAKDATNVAAAFEEAVRRVLATEDRSDHLIQTDTVNLHRKPKPSSSCC

The first experiment covers variants of B1. To be noted: with nisch_human NISCH.
On to MAETYDFLFKFLVIGSAGTGKNCLLHQFIENKFKQDSNHTIGVEFGSRVVNVGGKTVKLQIWDTAGQERFRSVTRSYYRGAAGALLVYDITSRETYNSLAAWLTDARTLASPNIVVILCGNKKDLDPEREVTFLEASRFAQENELMFLETSALTGENVEEAFLKCARTILNKIDSGELDPERMGSGIQYGDISLRQLRQPRSAQAVAPQPCGC [S22N], for which the “effect of a mutation on the interaction” value is listed as “disrupting interaction”.

In a further experiment the parent is B2. To be noted: with nisch_human NISCH.
Turning to MAGKSSLFKVILLGDGGVGKDSLMNRYVTNKFDTQLFHTIGVEFLNKDLEVDGHFVTMQIWDTAGQERFRSLRTPFYRGSDCCLLTFSVDDSQSFQNLSNWKKEFIYYADVKEPESFPFVILGNKIDISERQVSTEEAQAWCRDNGDYPYFETSAKDATNVAAAFEEAVRRVLATEDRSDHLIQTDTVNLHRKPKPSSSCC [S21D], the “effect of a mutation on the interaction” value is “disrupting interaction”.

The values above are taken from IntAct's records for PubMed 23386062.
